# Data reported in patent US20240058465A1 (SUTRO BIOPHARMA, published 2024).
# Residue numbers refer to the chain shown, from its start.
# B1: SRP2193-B02 (antibody, IgG1, V domains shown)
# VH: EVQLVESGGGLVQPGGSLRLSCAASGFNIKNSYIHWVRQAPGKGLEWVGTIDPTRGSTVHADSVKGRFTISADTSKNTAYLQMNSLRAEDTAVYYCARSRWFRVLWSYVFDYWGQGTLVTVSS
# VL: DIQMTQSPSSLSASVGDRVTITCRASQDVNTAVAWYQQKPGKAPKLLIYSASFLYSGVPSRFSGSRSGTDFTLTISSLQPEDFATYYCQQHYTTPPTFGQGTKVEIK
# notes: His/FLAG-tagged IgG1, cell-free; also called Antibody 77
# B2: SRP2193-B03 (antibody, IgG1, V domains shown)
# VH: B1 VH with K30R, N31D, S32Y, T50A, T54V, R55S, V59L, H60F, A92E
# VL: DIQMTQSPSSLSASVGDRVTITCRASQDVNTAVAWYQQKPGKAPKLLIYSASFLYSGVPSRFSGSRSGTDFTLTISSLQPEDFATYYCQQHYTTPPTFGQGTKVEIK
# notes: His/FLAG-tagged IgG1, cell-free; also called Antibody 82
# B3: SRP2193-B04 (antibody, IgG1, V domains shown)
# VH: B1 VH with K30S, T50A, D52E, T54K, R55N, V59H, S107T
# VL: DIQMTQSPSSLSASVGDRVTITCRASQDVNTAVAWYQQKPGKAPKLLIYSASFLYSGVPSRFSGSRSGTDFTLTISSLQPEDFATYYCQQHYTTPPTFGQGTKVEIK
# notes: His/FLAG-tagged IgG1, cell-free
# B4: SRP2193-C04 (antibody, IgG1, V domains shown)
# VH: B1 VH with K30N, N31T, T50A, T54K, R55S, V59N, H60F, T74A, F110L
# VL: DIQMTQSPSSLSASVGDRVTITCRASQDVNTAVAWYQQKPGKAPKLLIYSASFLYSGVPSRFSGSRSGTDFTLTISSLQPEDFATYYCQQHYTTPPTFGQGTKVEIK
# notes: His/FLAG-tagged IgG1, cell-free; also called Antibody 86
# B5: SRP2193-D10 (antibody, IgG1, V domains shown)
# VH: B1 VH with K30N, N31V, G49A, T54N, R55S, S57F
# VL: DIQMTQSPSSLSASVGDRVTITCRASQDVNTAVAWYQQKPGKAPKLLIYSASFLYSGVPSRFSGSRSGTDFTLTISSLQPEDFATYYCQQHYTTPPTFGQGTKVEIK
# notes: His/FLAG-tagged IgG1, cell-free; also called Antibody 92
# B6: SRP2193-E01 (antibody, IgG1, V domains shown)
# VH: B1 VH with N31G, S32K, T50A, T54K, R55S, V59A, V93A, S107T
# VL: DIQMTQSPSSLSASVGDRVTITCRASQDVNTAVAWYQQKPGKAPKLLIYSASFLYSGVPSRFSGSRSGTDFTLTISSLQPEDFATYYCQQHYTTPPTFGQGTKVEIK
# notes: His/FLAG-tagged IgG1, cell-free; also called Antibody 120
# B7: SRP2193-E03 (antibody, IgG1, V domains shown)
# VH: B1 VH with K30T, N31A, T50A, T54K, R55G, V59R, H60F
# VL: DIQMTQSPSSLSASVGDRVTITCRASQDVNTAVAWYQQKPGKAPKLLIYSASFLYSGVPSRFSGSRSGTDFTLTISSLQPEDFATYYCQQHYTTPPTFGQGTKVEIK
# notes: His/FLAG-tagged IgG1, cell-free; also called Antibody 98
# B8: SRP2193-E08 (antibody, IgG1, V domains shown)
# VH: B1 VH with K30N, N31E, S32Y, T50A, T54H, R55S, V59N, H60F, F102Y
# VL: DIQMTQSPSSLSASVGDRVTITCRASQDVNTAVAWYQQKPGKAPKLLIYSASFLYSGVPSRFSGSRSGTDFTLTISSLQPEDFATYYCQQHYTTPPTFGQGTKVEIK
# notes: His/FLAG-tagged IgG1, cell-free; also called Antibody 87
# B9: SRP2193-E11 (antibody, IgG1, V domains shown)
# VH: EVQLVESGGGLVQPGGSLRLSCAASGFNINDYYIHWVRQAPGKGLEWVGGIEPNSGATVFADSVKGRFTIGADTSKNTAYLQMNSLRAEDTAVYYCARSRWYRVLWSYVFHYWGQGTLVTVSS
# VL: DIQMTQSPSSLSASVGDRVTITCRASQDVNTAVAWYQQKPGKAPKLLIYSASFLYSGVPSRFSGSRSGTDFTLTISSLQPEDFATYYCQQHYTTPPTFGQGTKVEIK
# notes: His/FLAG-tagged IgG1, cell-free; also called Antibody 79
# B10: SRP2194-A01 (antibody, IgG1, V domains shown)
# VH: EVQLVESGGGLVQPGGSLRLSCAASGFNITGYYIHWVRQAPGKGLEWVGYISPLAGNTYHADSVKGRFNISADTSKNTAYLQMNSLRAEDTAVYYCARDSRRYVRPMDYWGQGTLVTVSS
# VL: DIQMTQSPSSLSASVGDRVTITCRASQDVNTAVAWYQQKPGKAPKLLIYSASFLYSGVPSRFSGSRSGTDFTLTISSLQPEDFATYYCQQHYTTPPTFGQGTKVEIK
# notes: as for B3
# B11: SRP2194-A04 (antibody, IgG1, V domains shown)
# VH: B10 VH with Y59H, N69T, M107L
# VL: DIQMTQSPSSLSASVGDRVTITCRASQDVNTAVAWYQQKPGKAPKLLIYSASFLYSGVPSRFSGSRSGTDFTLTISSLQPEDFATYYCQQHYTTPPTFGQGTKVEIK
# notes: as for B3
# B12: SRP2194-A06 (antibody, IgG1, V domains shown)
# VH: B10 VH with G31D, N69P, M107F
# VL: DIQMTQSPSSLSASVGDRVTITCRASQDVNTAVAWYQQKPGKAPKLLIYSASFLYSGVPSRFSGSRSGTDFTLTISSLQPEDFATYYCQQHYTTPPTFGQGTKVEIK
# notes: as for B3
# B13: SRP2194-A07 (antibody, IgG1, V domains shown)
# VH: B10 VH with I29F, G31D, N69T, M107F
# VL: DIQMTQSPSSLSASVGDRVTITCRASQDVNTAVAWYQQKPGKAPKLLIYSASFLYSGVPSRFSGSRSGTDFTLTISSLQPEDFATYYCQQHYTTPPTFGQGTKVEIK
# notes: as for B3
# B14: SRP2194-B01 (antibody, IgG1, V domains shown)
# VH: B10 VH with T30A, G31S, N69T, M107F
# VL: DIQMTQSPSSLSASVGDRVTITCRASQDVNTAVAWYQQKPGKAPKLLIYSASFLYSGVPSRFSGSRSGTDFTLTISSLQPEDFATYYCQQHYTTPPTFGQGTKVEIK
# notes: His/FLAG-tagged IgG1, cell-free; also called Antibody 140
# B15: SRP2194-B02 (antibody, IgG1, V domains shown)
# VH: B10 VH with T30S, A40T, N69T, M107L
# VL: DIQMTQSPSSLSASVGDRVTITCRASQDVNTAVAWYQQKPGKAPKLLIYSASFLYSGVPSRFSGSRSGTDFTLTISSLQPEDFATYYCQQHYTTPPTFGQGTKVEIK
# notes: as for B3
# B16: SRP2194-B03 (antibody, IgG1, V domains shown)
# VH: B10 VH with G31S, N69T, M107F
# VL: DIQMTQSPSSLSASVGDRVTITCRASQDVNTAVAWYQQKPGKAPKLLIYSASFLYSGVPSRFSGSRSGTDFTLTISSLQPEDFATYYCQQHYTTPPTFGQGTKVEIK
# notes: as for B3
# B17: SRP2194-B04 (antibody, IgG1, V domains shown)
# VH: B10 VH with Y33H, N69T, A97T, M107L
# VL: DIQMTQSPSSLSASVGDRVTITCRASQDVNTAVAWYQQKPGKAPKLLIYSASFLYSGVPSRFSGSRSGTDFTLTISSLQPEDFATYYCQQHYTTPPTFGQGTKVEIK
# notes: His/FLAG-tagged IgG1, cell-free; also called Antibody 129
# B18: SRP2194-A02 (antibody, IgG1, V domains shown)
# VH: B10 VH with N69T, M107F
# VL: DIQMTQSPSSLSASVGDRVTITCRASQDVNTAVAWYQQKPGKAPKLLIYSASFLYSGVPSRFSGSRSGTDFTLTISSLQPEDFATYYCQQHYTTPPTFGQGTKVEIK
# notes: as for B3
# B19: SRP2196-A02 (antibody, V domains shown)
# VH: B10 VH with Y50Q, L54N, A55S, N57A, Y59H, H60D, N69T, P106G, M107W
# VL: QAVVTQESALTTSPGETVTLTCRSSTGAVTTSNYANWVQEKPDHLFTGLIGGTNKRAPGVPARFSGSLIGDKAALTITGAQTEDEAIYFCALWYSNLWVFGGGTKLTVL
# notes: His/FLAG-tagged IgG1
# B20: SRP2196-B05 (antibody, V domains shown)
# VH: B10 VH with Y50Q, L54N, A55S, N57A, N69T, P106G, M107W
# VL: B19 VL
# notes: His/FLAG-tagged IgG1
# B21: SRP2196-B08 (antibody, V domains shown)
# VH: B10 VH with Y50Q, L54N, A55S, N57Y, H60L, N69T, P106G, M107W
# VL: B19 VL
# notes: His/FLAG-tagged IgG1
# B22: SRP2196-A03 (antibody, V domains shown)
# VH: B10 VH with G31Q, Y33H, L54N, A55S, N57S, Y59H, H60E, N69T, P106G, M107W
# VL: B19 VL
# notes: His/FLAG-tagged IgG1; also called Antibody 150
# B23: SRP2196-A04 (antibody, V domains shown)
# VH: EVQLVESGGGLVQPGGSLRLSCAASGFNISPYYIHWVRQAPGKGLEWVGQIYPISGHTYQADSVKGRFTISADTSKNTAYLQMNSLRAEDTAVYYCARESRRYVGPFGYWGQGTLVTVSS
# VL: B19 VL
# notes: His/FLAG-tagged IgG1
# B24: SRP2196-A05 (antibody, V domains shown)
# VH: B10 VH with G31N, L54N, A55S, N57A, H60Q, N69T, P106S, M107W
# VL: B19 VL
# notes: His/FLAG-tagged IgG1
# B25: SRP2196-A06 (antibody, V domains shown)
# VH: B10 VH with Y50Q, L54N, A55S, N57S, Y59H, H60Q, N69T, E89G, P106G, M107W
# VL: B19 VL
# notes: His/FLAG-tagged IgG1
# B26: SRP2196-A07 (antibody, V domains shown)
# VH: B10 VH with Y50Q, L54N, A55S, N57S, H60Y, N69T, N84S, P106G, M107W
# VL: B19 VL
# notes: His/FLAG-tagged IgG1
# Columns and labels:
# [1] = target: T1, human ROR1 Frizzled domain (hROR1-Fz) (human, UniProt Q01973 165-305); experiment: SPR Biacore, IgG on anti-Fc, ROR1-Fz analyte
# T1 construct: Acro Biosystems, made in HEK293
# Description: Anti-Fc polyclonal antibodies were immobilized onto a CMS chip (GE Life Sciences) using amine coupling chemistry (from Amine Coupling Kit, GE Life Sciences). The immobilization steps were carried out at a flow rate of 25 μL/min in 1×HBS-EP+buffer (GE Life Sciences; 10× Stock diluted before use). The sensor surfaces were activated for 7 min with a mixture of NHS (0.05 M) and EDC (0.2 M). The Anti-Fc antibodies were injected over all 4 flow cells at a concentration of 25 ug/ml in 10 mM sodium acetate, pH 4.5, for 7 min. Ethanolamine (1 M, pH 8.5) was injected for 7 min to block any remaining activated groups.
# Off-rate and kinetic binding experiments were performed at 25° C. using 1×HBS-EP+buffer. Test and control antibodies were injected over the anti-Fc surface at concentrations of 5-10 μg/mL for 12 seconds at a flow rate of 10 μL/min on flow cells 2, 3 and 4, followed by a buffer wash for 30 seconds at the same flow rate. […] After capturing ligand (antibody) on the anti-Fc surface, the analyte (hROR1, Fz or Kr domains, Acro Biosystems, Delaware) was bound for 180 seconds, followed by a 600 second dissociation phase at a flow rate of 50 μL/min. Between each ligand capture and analyte binding cycle, regeneration was carried out using 2 injections of 10 mM Glycine pH 2.0 for 30 seconds at 30 μL/min, followed by a 30 second buffer wash step.
# human ROR1 (hROR1) = target: T2, human ROR1 (hROR1) (human, UniProt Q01973 30-937); experiment: flow cytometry, HCT116-hROR1 cells
# T2 construct: On HCT116-hROR1 transfectants, Mino cells or Ntera-2 cells, as the assay of each row says; also called receptor tyrosine kinase like orphan receptor 1
# Description: A mix of ROR1 positive and negative cells was prepared as follows. Ror1 negative cells were washed 2× in PBS then incubated in PBS containing 1 nM CellTrace™ Oregon Green488® (Life Technologies) at 37° C. for 30 minutes. Cells were then washed 2× with RPMI w/10% fetal calf serum (or FCS), washed 2× with FACS buffer (PBS+0.5% BSA), suspended thoroughly in ice-cold FACS buffer at a final concentration of 4×10^6 cells/ml and kept on ice. ROR1 positive cells were washed 2× in PBS and suspended with ice-cold FACS buffer at 4×10^6 cells/ml. ROR1 positive and negative cells were then mixed to obtain a 1-1 cell suspension and seeded at 50 μl per well on 96 well polypropylene plates. 50 μl of 6-12 point dilutions of anti-ROR1 variants starting from concentrations of ˜100-200 nM antibody was dispensed using BioMekFX (Beckman Coulter) into each well. Cells were then incubated on ice for 1 hr, washed with FACS buffer and incubated for 1 hr on ice with 50 μl FACS buffer containing 2.5 μg/ml Alexa647-conjugated Goat Anti-Human IgG dispensed using BioMekFX (Beckman Coulter). Cells were then washed 2× with FACS buffer and fixed for 10 minutes in 200 μl PBS with 2% PFA prior to fluorescence detection. Samples were acquired using a Beckton Dickinson LSRII FACS. Mean Fluorescence Intensity of ROR1 antibody binding was analyzed using FlowJo® software (Tree Star, Inc.).
Binder,Kd [1] [nM],koff [1] [s⁻¹],kon [1] [M⁻¹ s⁻¹],Bmax (MFI) (human ROR1 (hROR1)),Kd (human ROR1 (hROR1)) [nM]
B1,2.35,0.000511,218000,15600,0.28
B2,2.96,0.000505,170000,15500,0.67
B3,0.778,0.000134,172000,15600,0.4
B4,1.19,0.000207,173000,14900,0.18
B5,3.62,0.000379,105000,14800,0.64
B6,1.06,0.000242,228000,17000,0.13
B7,1.14,0.000294,259000,14800,0.19
B8,3.96,0.000651,164000,15100,4.28
B9,1.28,0.000474,370000,25400,1.33
B10,1.07,0.000325,304000,9010,0.12
B11,1.84,0.000364,198000,9050,0.16
B12,3.75,0.00193,516000,9050,0.49
B13,1.61,0.000275,171000,8770,0.41
B14,3.12,0.000857,274000,8860,0.14
B15,2.77,0.00071,256000,9330,0.15
B16,1.42,0.000295,207000,9480,0.18
B17,1.44,0.000392,271000,9300,0.2
B18,1.39,0.000429,308000,9220,0.14
B19,–,–,–,15200,0.2
B20,–,–,–,14800,0.2
B21,3.13,0.000488,156000,14400,0.2
B22,1.63,0.000275,169000,15400,0.3
B23,2.46,0.000343,139000,14200,0.1
B24,3.9,0.000682,175000,14800,0.3
B25,3.82,0.00069,180000,14600,0.2
B26,3.44,0.00064,186000,14100,0.2
